Data: article PMC9177416, “Discovery of non-squalene triterpenes” (Nature, 2022)

Molecular target: the molecule itself
Test: cryo-EM structure; non-cross-linked full-length MpMS, unliganded, 50 uM in 20 mM HEPES pH 7.5, 150 mM NaCl, 1 mM DTT; only the PT domain reconstructed; map resolution 3.17 Å

B1: Macrophomina phaseolina macrophomene synthase (enzyme, Macrophomina phaseolina MS6, UniProt K2SUY0 1-698, looked up)
chain: MCNTKCYNTLAKMTVITEPAMEYMYSVPLDESEYDKCGFCQDPRYRPRRHKDQHLARAGSAKAKELCEALIGVYPRPTCESAVGHSIALVMPECMPGRVEAMGEFMESIFYMDNIAESGSQQDTGNLGTEWANDMETGPTTSVNSNTGAKQVMAKLALQLLSIDPVCAGNVMKAWKEWAAGFAKPRRFDSIEQYIDYRLVDSGAIVAVHLMNFGMGLDISVEELREVSDIVNHAGKALSYQNDFFSFNYEHDMFVKLPDSIGIANAVFVLAETEGLSLAEAKERVKELAKEHEDAVLRLKDEVESKVSYKLRICLEGLVDMVVGNLVWSASCDRYSSYRREKHQMELPIRIQGPPTPPQEPVYEKATLPNGKQLDAPTESSGKDLSDGVATLSGDEPVLGDEIVSAPIKYLESLPSKGFREAIIDGMNGWLNLPARSVSIIKDVVKHIHTASLLCDDIEDSSPLRRGQPSAHIIFGVSQTVNSTSYLWTLAIDRLSELSSPKSLRIFIDEVRKMQIGQSFDLHWTAALQCPSEEEYLSMIDMKTGGLFHLLIRLMIAESPRKVDMDFSGLVSMTGRYFQIRDDLSNLTSEEYENQKGYCEDLDEGKYSLPLIHALKHTKNKVQLESLLIQRKTQGGMTLEMKRLAIQIMKEAGSLEHTRKVVLELQDAVHRELAKLEEAFGQENYVIQLALERLRIKA
notes: codon-optimized synthetic gene cloned NdeI/EcoRI into pET28a (pRC088); Used without cross-linking in one cryo-EM sample and cross-linked with 0.06% glutaraldehyde in another; Only the PT domain (plus one TC helix in the cross-linked sample) could be modelled; also called MpMS; MPH_02178; source: E. coli BL21(DE3), purified (Ni-NTA, Resource Q anion exchange, Superose 6 size exclusion)
- stoichiometry N: 6
